Source: the supplement of paper PMC11780869

System: Bacillus subtilis
Assay: cleaved RNA product abundance (RNA/gDNA barcode ratio) relative to median wild-type variant (ratio to wild type); higher = more accumulation of the downstream cleavage product
Settings: cleavage site: cggR-gapA (positions -7 to +36 mutated)
How it was run: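 Reporter mRNAs based on truncated aprE or tetM carried barcoded, mutagenized RNase Y cleavage-site windows built from oligos with a 9% error rate and were integrated into the B. subtilis chromosome. Cultures grew in LB at 37°C from OD600 0.0003 to 0.3. Cleaved RNA was gel-selected, reverse transcribed and barcode-sequenced together with genomic DNA barcodes, and UMIs were collapsed. Cleaved product abundance is the per-construct ratio of RNA to gDNA barcodes, scaled to the median of constructs carrying the unmutated site.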

[1] = experiment (reporter, strain, medium): exp 4a: truncated aprE reporter, strain BJT201 with 2% xylose (RNase J1 expressed)
[2] = experiment (reporter, strain, medium): exp 2b: truncated aprE reporter, strain BJT200
[3] = experiment (reporter, strain, medium): exp 6: tetM reporter, strain 168

Row | Sequence | cleaved RNA product abundance [1] | cleaved RNA product abundance [2] | cleaved RNA product abundance [3]
1 | ACAGACGAAGGAGCCGCATAGAAGTTATTAAGGGATGAATAATCCCTGAATATAAATATCTCTCACTTATTTAAA | 0.679 | – | –
2 | ACAGACGAAGGAGCCGCATAGAAGTTATTAAGGGATGAATAATCCCTTAATATAAATATCTCTCACTTATTTAAA | 0.448 | 1.12 | –
3 | ACAGACGAAGGAGCCGCATAGAAGTTATTAAGGGATGAATAATCCGTCAATATAAATATCTCTCACTTATTTAAA | 0.235 | – | –
4 | ACAGACGAAGGAGCCGCATAGAAGTTATTAAGGGATGAATAATCCTTCAATATAAATATCTCTCACTTATTTAAA | 0.54 | 0.516 | –
5 | ACAGACGAAGGAGCCGCATAGAAGTTATTAAGGGATGAATAATCGCTCAATATAAATATCTCTCACTTATTTAAA | 0.141 | – | –
6 | ACAGACGAAGGAGCCGCATAGAAGTTATTAAGGGATGAATAATCTCTCAATATAAATATCTCTCACTTATTTAAA | – | 1.08 | –
7 | ACAGACGAAGGAGCCGCATAGAAGTTATTAAGGGATGAATAATGCCTCAATATAAATATCTCTCACTTATTTAAA | 0.141 | – | –
8 | ACAGACGAAGGAGCCGCATAGAAGTTATTAAGGGATGAATACTCCCTCAATATAAATATCTCTCACTTATTTAAA | 0.618 | – | –
9 | ACAGACGAAGGAGCCGCATAGAAGTTATTAAGGGATGACTAATCCCTCAATATAAATATCTCTCACTTATTTAAA | 0.679 | – | –
10 | ACAGACGAAGGAGCCGCATAGAAGTTATTAAGGGATGCATAATCCCTCAATATAAATATCTCTCACTTATTTAAA | 0.933 | – | –
11 | ACAGACGAAGGAGCCGCATAGAAGTTATTAAGGGATTAATAATCCCTCAATATAAATATCTCTCACTTATTTAAA | 1.38 | 1 | –
12 | ACAGACGAAGGAGCCGCATAGAAGTTATTAAGGGTTGAATAATCCCTCAATATAAATATCTCTCACTTATTTAAA | 0.41 | 0.498 | –
13 | ACAGACGAAGGAGCCGCATAGAAGTTATTAAGGTATGAATAATCCCTCAATATAAATATCTCTCACTTATTTAAA | 0.159 | – | –
14 | ACAGACGAAGGAGCCGCATAGAAGTTATTAAGTGATGAATAATCCCTCAATATAAATATCTCTCACTTATTTAAA | 0.0818 | 0.121 | –
15 | ACAGACGAAGGAGCCGCATAGAAGTTATTAATGGATGAATAATCCCTCAATATAAATATCTCTCACTTATTTAAA | 0.214 | 0.142 | –
16 | ACAGACGAAGGAGCCGCATAGAAGTTATTCAGGGATGAATAATCCCTCAATATAAATATCTCTCACTTATTTAAA | 0.947 | – | –
17 | ACAGACGAAGGAGCCGCATAGAAGTTATTTAGGGATGAATAATCCCTCAATATAAATATCTCTCACTTATTTAAA | 0.962 | – | –
18 | ACAGACGAAGGAGCCGCATAGAAGTTTTTAAGGGATGAATAATCCCTCAATATAAATATCTCTCACTTATTTAAA | 0.561 | – | –
19 | ACAGACGAAGGAGCCGCATAGAATTTATTAAGGGATGAATAATCCCTCAATATAAATATCTCTCACTTATTTAAA | 0.514 | 0.76 | –
20 | ACAGACGAAGGAGCCGCATAGATGTTATTAAGGGATGAATAATCCCTCAATATAAATATCTCTCACTTATTTAAA | 1.38 | – | –
21 | ACAGACGAAGGAGCCGCATATAAGTTATTAATGGATGAATAATCCCTCAATATAAATATCTCTCACTTATTTAAA | 0.131 | – | –

Row | Sequence | cleaved RNA product abundance [1] | cleaved RNA product abundance [2] | cleaved RNA product abundance [3]
22 | ACAGACGAAGGAGCCGCCAAGAAATTATTAAGGGATGAATAATCCCTCAATATAAATATCTCTCACTTATTTAAA | 0.549 | – | –
23 | ACAGACGAAGGAGCCGCCAAGAAGTAATTAAGGGATGAATAATCCCTCAATATAAATATCTCTCACTTATTTAAA | 0.375 | – | –
24 | ACAGACGAAGGAGCCGCCAAGAAGTTATTAAAGGATGAATAATCCCTCAATATAAATATCTCTCACTTATTTAAA | 0.144 | – | –
25 | ACAGACGAAGGAGCCGCCAAGAAGTTATTAACGGATGAATAATCCCTCAATATAAATATCTCTCACTTATTTAAA | – | 0.0909 | –
26 | ACAGACGAAGGAGCCGCCAAGAAGTTATTAAGGAATGAATAATCCCTCAATATAAATATCTCTCACTTATTTAAA | 0.107 | – | –
27 | ACAGACGAAGGAGCCGCCAAGAAGTTATTAAGGGATGAAAAATCCCTCAATATAAATATCTCTCACTTATTTAAA | 0.576 | – | –
28 | ACAGACGAAGGAGCCGCCAAGAAGTTATTAAGGGATGAATAAACCCTCAATATAAATATCTCTCACTTATTTAAA | 0.471 | – | –
29 | ACAGACGAAGGAGCCGCCAAGAAGTTATTAAGGGATGAATAATCACTCAATATAAATATCTCTCACTTATTTAAA | 0.102 | – | –
30 | ACAGACGAAGGAGCCGCCAAGAAGTTATTAAGGGATGAATAATCCATCAATATAAATATCTCTCACTTATTTAAA | 0.327 | – | –
31 | ACAGACGAAGGAGCCGCCAAGAAGTTATTAAGGGATGAATAATCCCTCAATATAAATATCTCTCACTTATTTAAA | 0.872 | 0.985 | –
32 | ACAGACGAAGGAGCCGCCAAGAAGTTATTAAGGGATGAATAATCCCTCACTATAAATATCTCTCACTTATTTAAA | – | 0.191 | –
33 | ACAGACGAAGGAGCCGCCAAGAAGTTATTAAGGGATGAATAATCCCTTAATATAAATATCTCTCACTTATTTAAA | 0.305 | 0.21 | –
34 | ACAGACGAAGGAGCCGCCAAGAAGTTATTAAGGGATGAATAATCCTTCAATATAAATATCTCTCACTTATTTAAA | 0.531 | 0.518 | –
35 | ACAGACGAAGGAGCCGCCAAGAAGTTATTAAGGGATTAATAATCCCTCAATATAAATATCTCTCACTTATTTAAA | 0.726 | – | –
36 | ACAGACGAAGGAGCCGCCAAGAAGTTATTAAGGTATGAATAATCCCTCAATATAAATATCTCTCACTTATTTAAA | 0.103 | – | –
37 | ACAGACGAAGGAGCCGCCAAGAAGTTATTAAGTGATGAATAATCCCTCAATATAAATATCTCTCACTTATTTAAA | 0.146 | – | –
38 | ACAGACGAAGGAGCCGCCAAGAAGTTATTCAGGGATGAATAATCCCTCAATATAAATATCTCTCACTTATTTAAA | 0.506 | – | –
39 | ACAGACGAAGGAGCCGCCAAGATGTTATTAAGGGATGAATAATCCCTCAATATAAATATCTCTCACTTATTTAAA | 0.894 | – | –
40 | ACAGACGAAGGAGCCGCCAATAAGTTATTAAGGGATGAATAATCCCTCAATATAAATATCTCTCACTTATTTAAA | 0.812 | – | –
41 | ACAGACGAAGGAGCCGCGAAGAACTTATTAAGGGATGAATAATCCCTCAATATAAATATCTCTCACTTATTTAAA | 0.252 | – | –
42 | ACAGACGAAGGAGCCGCGAAGAAGTAATTAAGGGATGAATAATCCCTCAATATAAATATCTCTCACTTATTTAAA | – | 0.178 | –

Row | Sequence | cleaved RNA product abundance [1] | cleaved RNA product abundance [2] | cleaved RNA product abundance [3]
43 | ACAGACGAAGGAGCCGCGAAGAAGTGATTAAGGGATGAATAATCCCTCAATATAAATATCTCTCACTTATTTAAA | 0.347 | – | –
44 | ACAGACGAAGGAGCCGCGAAGAAGTTAATAAGGGATGAATAATCCCTCAATATAAATATCTCTCACTTATTTAAA | 0.31 | – | –
45 | ACAGACGAAGGAGCCGCGAAGAAGTTATGAAGGGATGAATAATCCCTCAATATAAATATCTCTCACTTATTTAAA | 0.248 | – | –
46 | ACAGACGAAGGAGCCGCGAAGAAGTTATTAAAGGATGAATAATCCCTCAATATAAATATCTCTCACTTATTTAAA | 0.258 | – | –
47 | ACAGACGAAGGAGCCGCGAAGAAGTTATTAACGGATGAATAATCCCTCAATATAAATATCTCTCACTTATTTAAA | 0.185 | 0.164 | –
48 | ACAGACGAAGGAGCCGCGAAGAAGTTATTAAGAGATGAATAATCCCTCAATATAAATATCTCTCACTTATTTAAA | 0.108 | 0.114 | –
49 | ACAGACGAAGGAGCCGCGAAGAAGTTATTAAGGAATGAATAATCCCTCAATATAAATATCTCTCACTTATTTAAA | – | – | 0.104
50 | ACAGACGAAGGAGCCGCGAAGAAGTTATTAAGGCATGAATAATCCCTCAATATAAATATCTCTCACTTATTTAAA | – | 0.0773 | –
51 | ACAGACGAAGGAGCCGCGAAGAAGTTATTAAGGGATAAATAATCCCTCAATATAAATATCTCTCACTTATTTAAA | 0.679 | – | –
52 | ACAGACGAAGGAGCCGCGAAGAAGTTATTAAGGGATCAATAATCCCTCAATATAAATATCTCTCACTTATTTAAA | 0.762 | – | –
53 | ACAGACGAAGGAGCCGCGAAGAAGTTATTAAGGGATGAATAAACCCTCAATATAAATATCTCTCACTTATTTAAA | 0.467 | – | –
54 | ACAGACGAAGGAGCCGCGAAGAAGTTATTAAGGGATGAATAATACCTCAATATAAATATCTCTCACTTATTTAAA | 0.117 | – | –
55 | ACAGACGAAGGAGCCGCGAAGAAGTTATTAAGGGATGAATAATCACTCAATATAAATATCTCTCACTTATTTAAA | 0.122 | – | –
56 | ACAGACGAAGGAGCCGCGAAGAAGTTATTAAGGGATGAATAATCCCACAATATAAATATCTCTCACTTATTTAAA | 0.227 | 0.17 | –
57 | ACAGACGAAGGAGCCGCGAAGAAGTTATTAAGGGATGAATAATCCCTCAAAATAAATATCTCTCACTTATTTAAA | 0.319 | – | –
58 | ACAGACGAAGGAGCCGCGAAGAAGTTATTAAGGGATGAATAATCCCTCAATATAAATAACTCTCACTTATTTAAA | 0.969 | 1.05 | –
59 | ACAGACGAAGGAGCCGCGAAGAAGTTATTAAGGGATGAATAATCCCTCAATATAAATATCTCTCACTTATTTAAA | 0.87 | 0.919 | 0.885
60 | ACAGACGAAGGAGCCGCGAAGAAGTTATTAAGGGATGAATAATCCGTCAATATAAATATCTCTCACTTATTTAAA | – | 0.145 | –
61 | ACAGACGAAGGAGCCGCGAAGAAGTTATTAAGGGATGAATAATCGCTCAATATAAATATCTCTCACTTATTTAAA | 0.134 | – | –
